From patent EP4663659A1 (Merck Patent GmbH, dated 2025)

Molecular target: T1, mouse CD40 (mouse, UniProt P27512 20-193, limits assumed)
T1 construct: also called mCD40
T1 sequence (looked up): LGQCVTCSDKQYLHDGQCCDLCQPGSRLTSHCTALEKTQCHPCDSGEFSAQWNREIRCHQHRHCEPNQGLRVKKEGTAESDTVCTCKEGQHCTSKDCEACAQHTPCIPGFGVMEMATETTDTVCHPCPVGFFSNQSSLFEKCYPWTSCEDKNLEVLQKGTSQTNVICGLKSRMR
Experiment: not described; the molecule was used as isotype control in mice

B1: Fusion protein 1 (FP1), anti-MUC-1 × anti-CD40 bispecific binding protein (bispecific antibody, human IgG1, lambda, L234A L235A)
heavy: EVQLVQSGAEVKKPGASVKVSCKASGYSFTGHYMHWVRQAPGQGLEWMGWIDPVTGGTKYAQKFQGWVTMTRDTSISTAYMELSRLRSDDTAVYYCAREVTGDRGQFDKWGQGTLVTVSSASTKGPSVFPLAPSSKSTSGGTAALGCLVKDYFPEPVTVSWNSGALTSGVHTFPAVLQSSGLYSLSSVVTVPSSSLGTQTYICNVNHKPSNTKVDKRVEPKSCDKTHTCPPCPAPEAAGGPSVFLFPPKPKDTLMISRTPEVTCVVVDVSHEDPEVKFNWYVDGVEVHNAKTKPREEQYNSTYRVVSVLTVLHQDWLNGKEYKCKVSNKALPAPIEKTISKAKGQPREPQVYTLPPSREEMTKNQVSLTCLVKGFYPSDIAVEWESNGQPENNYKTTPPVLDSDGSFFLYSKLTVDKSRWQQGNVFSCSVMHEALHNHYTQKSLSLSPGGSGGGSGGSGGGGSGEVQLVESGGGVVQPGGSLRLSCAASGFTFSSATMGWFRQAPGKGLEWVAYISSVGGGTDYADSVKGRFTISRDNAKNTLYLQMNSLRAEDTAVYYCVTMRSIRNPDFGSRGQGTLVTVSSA
light: SYVLTQPPSVSVAPGKTARITCGGNNIGSKSVHWYQQKPGQAPVLVIYYGSNRPSGIPERFSGSNSGNTATLTISRVEAGDEADYYCQVWDSSSDWVFGGGTKLTVLGQPKAAPSVTLFPPSSEELQANKATLVCLISDFYPGAVTVAWKADSSPVKAGVETTTPSKQSNNKYAASSYLSLTPEQWKSHKSYSCQVTHEGSTVEKTVAPTECS
notes: Fully human anti-MUC-1 IgG1 with one anti-human CD40 VHH fused by a 15 aa GS linker to the C-terminus of each heavy chain; also called Anti MUC-1 × CD40; anti MUC-1 × hCD40 A02
- binding result: no binding
